A value given as a limit tells only on which side of the number the result lay.

For this test, the target named is Negative control peptide 2014 (1907 with L145E and L152E) (UniProt P49023 141-153, S143 (i,i + 7 staple position), i,i + 7 all-hydrocarbon staple as in 1907). Put plainly: SPR.

B1: Biotinylated AviTag FAK FAT protein (domain or fragment)
chain: MAAAYLDPNLNHTPNSSTKTHLGTGMERSPGAMERVLKVFHYFESNSEPTTWASIIRHGDATDVRGIIQKIVDSHKVKHVACYGFRLSHLRSEEVHWLHVDMGVSSVREKYELAHPPEEWKYELRIRYLPKGFLNQFTEDKPTLNFFYQQVKSDYMLEIADQVDQEIALKLGCLEIRRSYWEMRGNALEKKSNYEVLEKDVGLKRFFPKSLLDSVKAKTLRKLIQQTFRQFANLNREESILKFFEILSPVYRFDKECFKCALGSSWIISVELAIGPEEGISYLTDKGCNPTHLADFTQVQTIQYSNSEDKDRKGMLQLKIAGAPEPLTVTAPSLTIAENMADLIDGYCRLVNGTSQSFIIRPQKEGERALPSIPKLANSEKQGMRTHAVSVSETDDYAEIIDEEDTYTMPSTRDYEIQRERIELGRCIGEGQFGDVHQGIYMSPENPALAVAIKTCKNCTSDSVREKFLQEALTMRQFDHPHIVKLIGVITENPVWIIMELCTLGELRSFLQVRKYSLDLASLILYAYQLSTALAYLESKRFVHRDIAARNVLVSSNDCVKLGDFGLSRYMEDSTYYKASKGKLPIKWMAPESINFRRFTSASDVWMFGVCMWEILMHGVKPFQGVKNNDVIGRIENGERLPMPPNCPPTLYSLMTKCWAYDPSRRPRFTELKAQLSTILEEEKAQQEERMRMESRRQATVSWDSGGSDEAPPKPSRPGYPSPRSSEGFYPSPQHMVQTNHYQVSGYPGSHGITAMAGSIYPGQASLLDQTDSWNHRPQEIAMWQPNVEDSTVLDLRGIGQVLPTHLMEERLIRQQQEMEEDQRWLEKEERFLKPDVRLSRGSIDREDGSLQGPIGNQHIYQPVGKPDPAAPPKKPPRPGAPGHLGSLASLSSPADSYNEGVKLQPQEISPPPTANLDRSNDKVYENVTGLVKAVIEMSSKIQPAPPEEYVPMVKEVGLALRTLLATVDETIPLLPASTHREIEMAQKLLNSDLGELINKMKLAQQYVMTSLQQEYKKQMLTAAHALAVDAKNLLDVIDQARLKMLGQTRPH
modifications: biotin (biotinylated AviTag)
As for B1, the Kd is more than 200 µM.

Source of the values: PMC11871066 (2025).
